One assay concerns the target T1, HLA-A*11:01 (HLA-A11) (Homo sapiens, UniProt P04439, A114D/D185E/E176A/F33Y/L180Q/S129P/T187R).
T1 construct: soluble HLA molecules mixed with a fluorescein-labeled peptide; made in house; host or cells: Escherichia coli
The assay is described as follows: Competition-based peptide-HLA class I binding assay, HLA-A11.

In the next assay the target is T2, HLA-A*03:01 (HLA-A3) (Homo sapiens, UniProt P04439).
T2 construct: soluble HLA molecules mixed with a fluorescein-labeled peptide; made in house; host or cells: Escherichia coli
Put plainly: Competition-based peptide-HLA class I binding assay, HLA-A3.

A further assay has as its target HLA-A*02:01 (HLA-A2) (Homo sapiens, UniProt P04439, D140Y/D185E/D98H/E176V/E277Q/G131W/G231S/I119V/I121R/I166T/I218V/L300P/L318F/N151K/N90K/P208A/P217A/Q86G/Q94H/R138H/R169H/T345S). Particulars: cited from earlier work. The source says:
In this study, we investigated whether […] is also a neoantigen that can be targeted by TCR gene therapy. We isolated various T-cells for […] and cloned the TC ...

The target in assay [1] is soluble HLA-A*03:01 (heavy chain with β2M). The assay is described as follows: competition-based peptide-HLA class I binding assay (gel-filtration HPLC with fluorescence detection); 25 pmol HLA heavy chain, 25 pmol β2M, 100 fmol KVFPC(Fl)ALINK and 10-fold serial dilutions of competitor peptide in 100 µL; 100 mM phosphate, 75 mM NaCl, 1 mM CHAPS, pH 7; 24 h at RT; IC50 = 50% reduction of the fluorescent pHLA-complex peak.

The target of assay [2] is soluble HLA-A*11:01 (heavy chain with β2M). The description is as above.

Among the data in publication PMC8582585, “An HLA-A*11:01-Binding Neoantigen from Mutated NPM1 as Target for TCR Gene Therapy in AML” (Cancers, 2021) are IC50 and HLA-A2 binding values, retold here.

Peptide text beside a SMILES is read from it.

Turning to `CC(C)C[C@H](NC(=O)[C@H](CO)NC(=O)[C@@H](NC(=O)[C@H](CCC(=O)O)NC(=O)[C@H](CCC(=O)O)NC(=O)[C@@H](NC(=O)[C@H](C)N)C(C)C)C(C)C)C(=O)N[C@@H](CCCNC(=N)N)C(=O)N[C@@H](CCCCN)C(=O)O` (H-AVEEVSLRK-OH), the concentration for half-maximal inhibition (IC50) (as a rule, the point on the concentration scale where inhibition reaches its midpoint) at HLA-A*11:01 (HLA-A11) came to 50.9 nM; on HLA-A*03:01 (HLA-A3) it was 1330 nM.
On to CLAVEEVSL, for which, in the assay with HLA-A*02:01 (HLA-A2), the HLA-A2 binding result was “HLA-A*02:01 (HLA-A2)-binding”.

B1: dNPM1 … peptide (peptide)
peptide: AVEEVSLRK
Turning to B1, the results for the IC50 in assay [1] and in assay [2] were 1330 nM and 50.9 nM, respectively.
